In patent publication US20180236024A1 (STC UNM, published 2018):

Columns and labels:
radiolabeled Myc-TRIM20 = biological target: T1, radiolabeled Myc-TRIM20 (human, UniProt O15553 1-781, [35S] L-methionine label); assay: GST pull-down of radiolabeled Myc-TRIM20
T1 construct: In vitro translated for GST pull-down; the peptide array of TRIM20 peptides is also written under this molecule; not shown: Myc tag
T1 sequence: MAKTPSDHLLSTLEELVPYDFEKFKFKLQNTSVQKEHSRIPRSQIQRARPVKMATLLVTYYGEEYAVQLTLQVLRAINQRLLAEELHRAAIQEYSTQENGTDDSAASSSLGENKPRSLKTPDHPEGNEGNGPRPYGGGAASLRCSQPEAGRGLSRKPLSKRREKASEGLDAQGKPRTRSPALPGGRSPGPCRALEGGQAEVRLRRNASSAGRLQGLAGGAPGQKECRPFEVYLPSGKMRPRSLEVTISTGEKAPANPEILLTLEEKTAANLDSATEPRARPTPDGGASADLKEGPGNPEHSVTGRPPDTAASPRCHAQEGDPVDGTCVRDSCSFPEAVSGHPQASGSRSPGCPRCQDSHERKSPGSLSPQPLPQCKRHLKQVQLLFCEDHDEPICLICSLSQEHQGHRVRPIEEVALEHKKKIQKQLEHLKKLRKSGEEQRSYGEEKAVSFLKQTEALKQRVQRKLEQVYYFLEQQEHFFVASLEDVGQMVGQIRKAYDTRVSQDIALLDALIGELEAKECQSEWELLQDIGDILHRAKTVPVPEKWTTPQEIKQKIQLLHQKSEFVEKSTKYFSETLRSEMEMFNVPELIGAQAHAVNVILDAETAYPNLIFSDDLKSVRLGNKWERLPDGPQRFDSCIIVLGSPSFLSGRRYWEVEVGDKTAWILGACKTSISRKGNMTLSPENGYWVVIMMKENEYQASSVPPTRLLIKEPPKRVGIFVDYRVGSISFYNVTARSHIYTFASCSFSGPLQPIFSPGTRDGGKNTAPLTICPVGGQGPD

NLRP3 = biological target: T2, NLRP3 (UniProt Q96P20 1-1036); assay: co-IP of GFP-TRIM20 variants with NLRP3, HEK293 cells
T2 construct: also called Flag-NLRP3; endogenous NLRP3
T2 sequence (Q96P20 whole entry): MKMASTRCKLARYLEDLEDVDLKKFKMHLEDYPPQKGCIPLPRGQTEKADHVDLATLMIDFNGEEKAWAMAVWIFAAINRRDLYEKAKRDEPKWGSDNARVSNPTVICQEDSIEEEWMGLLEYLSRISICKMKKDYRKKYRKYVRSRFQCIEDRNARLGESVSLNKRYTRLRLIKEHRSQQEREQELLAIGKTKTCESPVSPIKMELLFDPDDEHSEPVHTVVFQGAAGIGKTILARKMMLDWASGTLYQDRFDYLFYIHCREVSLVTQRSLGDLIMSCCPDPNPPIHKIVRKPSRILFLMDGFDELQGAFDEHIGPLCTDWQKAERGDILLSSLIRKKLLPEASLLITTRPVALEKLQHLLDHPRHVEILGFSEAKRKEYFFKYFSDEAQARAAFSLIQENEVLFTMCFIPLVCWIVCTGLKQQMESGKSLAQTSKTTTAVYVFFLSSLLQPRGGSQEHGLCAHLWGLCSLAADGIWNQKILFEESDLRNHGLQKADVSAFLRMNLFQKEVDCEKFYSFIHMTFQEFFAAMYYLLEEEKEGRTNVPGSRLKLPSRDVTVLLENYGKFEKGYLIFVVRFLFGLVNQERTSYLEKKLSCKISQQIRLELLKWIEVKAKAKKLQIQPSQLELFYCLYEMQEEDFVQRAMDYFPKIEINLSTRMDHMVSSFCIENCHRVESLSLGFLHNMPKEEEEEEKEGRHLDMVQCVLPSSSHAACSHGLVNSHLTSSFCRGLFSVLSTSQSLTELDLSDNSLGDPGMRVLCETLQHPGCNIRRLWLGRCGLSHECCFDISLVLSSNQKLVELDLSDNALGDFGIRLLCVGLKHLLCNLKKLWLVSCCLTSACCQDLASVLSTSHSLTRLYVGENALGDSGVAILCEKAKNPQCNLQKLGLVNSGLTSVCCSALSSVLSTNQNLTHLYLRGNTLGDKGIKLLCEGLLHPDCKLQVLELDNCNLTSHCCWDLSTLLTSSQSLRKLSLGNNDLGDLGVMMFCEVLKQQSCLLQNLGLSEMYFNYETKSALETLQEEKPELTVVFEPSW

Binder	binding result (radiolabeled Myc-TRIM20)	binding result (NLRP3)
GST-GABARAP (other, GST fusion made in E. coli; not shown: GST tag) MKFVYKEEHPFEKRRSEGEKIRKKYPDRVPVIVEKAPKARIGDLDKKKYLVPSDLTVGQFYFLIRKRIHLRAEDALFFFVNNVIPPTSATMGQLYQEHHEEDFFLYIAYSDESVYGL	binds	–
GFP-TRIM20 (full-length human TRIM20) (other, also called T20; wild type TRIM20; not shown: GFP tag) MAKTPSDHLLSTLEELVPYDFEKFKFKLQNTSVQKEHSRIPRSQIQRARPVKMATLLVTYYGEEYAVQLTLQVLRAINQRLLAEELHRAAIQEYSTQENGTDDSAASSSLGENKPRSLKTPDHPEGNEGNGPRPYGGGAASLRCSQPEAGRGLSRKPLSKRREKASEGLDAQGKPRTRSPALPGGRSPGPCRALEGGQAEVRLRRNASSAGRLQGLAGGAPGQKECRPFEVYLPSGKMRPRSLEVTISTGEKAPANPEILLTLEEKTAANLDSATEPRARPTPDGGASADLKEGPGNPEHSVTGRPPDTAASPRCHAQEGDPVDGTCVRDSCSFPEAVSGHPQASGSRSPGCPRCQDSHERKSPGSLSPQPLPQCKRHLKQVQLLFCEDHDEPICLICSLSQEHQGHRVRPIEEVALEHKKKIQKQLEHLKKLRKSGEEQRSYGEEKAVSFLKQTEALKQRVQRKLEQVYYFLEQQEHFFVASLEDVGQMVGQIRKAYDTRVSQDIALLDALIGELEAKECQSEWELLQDIGDILHRAKTVPVPEKWTTPQEIKQKIQLLHQKSEFVEKSTKYFSETLRSEMEMFNVPELIGAQAHAVNVILDAETAYPNLIFSDDLKSVRLGNKWERLPDGPQRFDSCIIVLGSPSFLSGRRYWEVEVGDKTAWILGACKTSISRKGNMTLSPENGYWVVIMMKENEYQASSVPPTRLLIKEPPKRVGIFVDYRVGSISFYNVTARSHIYTFASCSFSGPLQPIFSPGTRDGGKNTAPLTICPVGGQGPD	–	binds
